The source of these data is patent publication US20200362021A1 (PHANES THERAPEUTICS, published 2020).

No end group written: not given here. *: point of attachment. Biotin = O=C1N[C@H]2[C@H](CS[C@H]2CCCCC(=O)*)N1

The term Kd denotes the concentration at which binding is half-saturated.

In test [1] the target is T1, apelin-13-biotin (…-biotin) (C-terminal biotin).
T1 construct: also called APL13-Biotin
Put plainly: SPR (Biacore), apelin-13-biotin on streptavidin chip. On the procedure:
(§1) Anti-apelin mAbs at four different concentrations (12.5 nM, 25 nM, 50 nM and 100 nM) were captured on the chip surface. The on- and off-rate for antibody-antigen binding were measured, curve fitted and calculated.
For orientation: SPR reads the build-up and loss of mass on a sensor chip optically.

The target in test [2] is T2, pyr-apelin-13-biotin (pE-RPRLSHKGPMPF-biotin) (N-terminal pyroglutamate (pE); C-terminal biotin).
T2 construct: also called pyrAPL13-Biotin
T2 peptide: ERPRLSHKGPMPF
As to the kind of experiment: SPR (Biacore), pyr-apelin-13-biotin on streptavidin chip. On the procedure: as §1

Test [3] concerns the target T3, Biotin-APL17.
T3 peptide: Biotin-KFRRQRPRLSHKGPMPF
As to the kind of experiment: ELISA, peptide on neutravidin plate, mAb 200 ng/ml, A405. On the technique in general: In an ELISA, binding on a coated surface is turned into a signal by an enzyme label.

Test [4] deals with T4, APL17-Biotin.
T4 peptide: KFRRQRPRLSHKGPMPF-biotin
The test is described as above.

Test [5] concerns the target T5, 1-4.
T5 construct: also called apelin peptide 1-4 (QRPR)
T5 peptide: QRPR
Put plainly: competition ELISA, captured mAb, peptide competes with apelin-13-biotin, A405.

Test [6] has as its target T6, apelin 17 (competition peptide 1-17, KFRRQRPRLSHKGPMPF).
T6 peptide: KFRRQRPRLSHKGPMPF
Described as above.

Test [7] concerns the target T7, apelin peptide 1-12 (QRPRLSHKGPMP).
T7 peptide: QRPRLSHKGPMP
The test is described as above.

Test [8] deals with T8, apelin peptide 2-13 (RPRLSHKGPMPF).
T8 peptide: RPRLSHKGPMPF
Described as above.

The target of test [9] is T9, apelin peptide 1-11 (QRPRLSHKGPM).
T9 peptide: QRPRLSHKGPM
Described as above.

The target of test [10] is T10, apelin peptide 1-10 (QRPRLSHKGP).
T10 peptide: QRPRLSHKGP
Described as above.

In test [11] the target is T11, apelin peptide 1-9 (QRPRLSHKG).
T11 peptide: QRPRLSHKG
The description is as above.

The target in test [12] is T12, apelin peptide 1-8 (QRPRLSHK).
T12 peptide: QRPRLSHK
Described as above.

Test [13] concerns the target T13, apelin peptide 1-7 (QRPRLSH).
T13 peptide: QRPRLSH
Described as above.

The target of test [14] is T14, apelin peptide 1-6 (QRPRLS).
T14 peptide: QRPRLS
Described as above.

The target of test [15] is T15, apelin peptide 1-5 (QRPRL).
T15 peptide: QRPRL
The test is described as above.

The target of test [16] is T16, alanine scanning peptide 1A (ARPRL).
T16 peptide: ARPRL
The test is described as above. On the procedure:
(§2) Each peptide or control sample was assayed in duplicate for a given mAb.

Test [17] concerns the target T17, alanine scanning peptide 2A (QAPRL).
T17 peptide: QAPRL
The description is as above. On the procedure:
as §2

Test [18] has as its target T18, alanine scanning peptide 3A (QRARL).
T18 peptide: QRARL
The test is described as above. On the procedure: as §2

Test [19] has as its target T19, alanine scanning peptide 4A (QRPAL).
T19 peptide: QRPAL
The description is as above. On the procedure: as §2

Test [20] concerns the target T20, alanine scanning peptide 5A (QRPRA).
T20 peptide: QRPRA
Described as above. On the procedure: as §2

B1: anti-apelin mAb C7 (antibody, V domains shown)
VH: QSLEESGGRLAKPDETLTLTCTVSGIDLNSHAMDWVRQAPGKGLEWIGVIAPDTRTYYATWARGRFTISKTSSTSVELKMTSLTTEDTATYFCAAYPIEPGANIWGPGTLVTVSS
VL: DPVLTQTPSPVSAPVGGTVTIGCQASESVDYNNQLSWYQQKPGQAPKRLMYYVSTLDSGVPSRFKGSGSGTQFTLTISDLECDDAATYYCQGGYPYNIYPFGGGTEVVVK
notes: recombinant rabbit IgG made in HEK293 cells
As for B1, the Kd stood at 3.14 pM in test [1] and 0.326 pM in test [2]. Also, the binding result in test [3] is listed as “no binding (tested: 200 ng/ml)”; in test [4], “no binding (tested: 200 ng/ml)”; in test [5] it was “no binding (tested: peptide concentration not stated)”; in test [6], “no binding (tested: peptide concentration not stated)”; in test [7], “binds”; in [8], “no binding (tested: peptide concentration not stated)”. For the same molecule, the binding result in [9], in test [10], in [11], in test [12], in test [13] and in test [14] was “binds” each time. Moreover, the binding result is given as “binds” in test [15]; “no binding (tested: peptide concentration not stated)” in test [16]; “no binding (tested: peptide concentration not stated)” in [17]; “no binding (tested: peptide concentration not stated)” in test [18]; “no binding (tested: peptide concentration not stated)” in test [19]; “no binding (tested: peptide concentration not stated)” in test [20].
